Measurements published in PMC9426568, “Glucose-1,6-Bisphosphate, a Key Metabolic Regulator, Is Synthesized by a Distinct Family of α-Phosphohexomutases Widely Distributed in Prokaryotes” (mBio, 2022).

T1: Sll0726 (Synechocystis sp. PCC 6803, UniProt P74643)
T1 construct: gene pgm; recombinant, Strep-tagged, expressed in E. coli Rosetta-gami (DE3), purified
T1 sequence (P74643 1-567): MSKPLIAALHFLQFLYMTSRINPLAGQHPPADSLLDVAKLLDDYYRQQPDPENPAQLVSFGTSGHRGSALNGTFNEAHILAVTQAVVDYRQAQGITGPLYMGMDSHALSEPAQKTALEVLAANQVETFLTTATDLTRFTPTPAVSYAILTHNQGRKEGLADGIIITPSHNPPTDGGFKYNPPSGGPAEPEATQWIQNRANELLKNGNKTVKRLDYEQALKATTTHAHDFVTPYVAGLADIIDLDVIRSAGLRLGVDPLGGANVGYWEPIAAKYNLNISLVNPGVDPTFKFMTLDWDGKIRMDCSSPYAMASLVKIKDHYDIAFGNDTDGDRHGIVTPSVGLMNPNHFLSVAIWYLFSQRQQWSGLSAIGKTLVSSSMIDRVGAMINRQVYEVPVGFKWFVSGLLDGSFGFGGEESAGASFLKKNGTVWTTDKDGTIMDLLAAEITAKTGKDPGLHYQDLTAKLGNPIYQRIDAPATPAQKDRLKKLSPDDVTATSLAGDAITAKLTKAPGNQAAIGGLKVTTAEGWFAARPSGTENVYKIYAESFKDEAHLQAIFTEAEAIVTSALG

B1: Sll0726 (Synechocystis sp. PCC 6803 substr. Kazusa) (protein)
chain: T1 sequence (P74643 1-567)
notes: recombinant, Strep-tagged, expressed in E. coli Rosetta-gami (DE3), purified
B2: Slr1334 (Synechocystis sp. PCC 6803 substr. Kazusa) (protein)
chain: MVYTPAPIKFGTDGWRGVIAAEFTFERVVLVAAAAAQVLAAEFGSSGREHRLIVGYDRRFMAEQFALLVAQTVQELGFEVWLSESYAPTPAFSWAAHHENALGALVLTASHNPANYLGLKVKGAFGGSVGSDVTEKIEAQLQNSLPQPQAGGSLQYFDPWPSYCQGLQAKVNVQPIREAVQQGKLRVFADVMHGAAASGLERLLGCPIDEINGDRDPLFGGASPEPLPKYVPKLLAALQTAAKAGGPELRVGLIFDGDADRIAAVDGQGNFLSSQGLIPILIYHLATQKGLQGEIVKTVSGSDLIPKLAELYGIPLTETAIGYKYIADRMLTSPVLIGGEESGGIGYGGHIPERDALLSALYVLETVVQSQQDISEQYGRLQEKVCFVSEYDRIDLPLASMDVRTALVQTLNENPLTAIAGEQVTDLLTTDGYKFRMAGGGWLLIRFSGTEPLLRLYCEAPTSSRVQTVLHWAKDWANGVTPAKPAQSSH
notes: recombinant, expressed in E. coli Rosetta-gami (DE3), purified

Legend:
Sll0726 = molecular target: T1, Sll0726; experiment: G6PDH-coupled PGM assay, NADPH at […] nm; type: biochemical; details: inhibitor, 100 μM, varied Glc-1P, without Glc-1,6-BP; 10 mM MgCl2, pH 7.5, 30°C
purified protein [1] = substrate: O=P(O)(O)O[C@H]1O[C@H](CO)[C@@H](O)[C@H](O)[C@H]1O; experiment: purified protein; type: biochemical, Synechocystis sp. PCC 6803; details: with 60 μM Glc-1,6-BP (activator), 10 mM MgCl2, 150 mM KCl, HEPES-KOH pH 7.5, 30°C
purified protein [2] = substrate: O=P(O)(O)OC[C@H]1O[C@H](OP(=O)(O)O)[C@H](O)[C@@H](O)[C@@H]1O; experiment: purified protein; type: biochemical, Synechocystis sp. PCC 6803; details: co-substrate 0.5 mM Frc-6P, 10 mM MgCl2, 150 mM KCl, HEPES-KOH pH 7.5, 30°C, lowest measurable concentration already saturating

Row | Molecule | G6PDH-coupled PGM assay, NADPH at 340 nm (Sll0726) | Km (purified protein [1]) | kcat (purified protein [1]) | kcat/Km (purified protein [1]) | kcat (purified protein [2]) | kcat/Km (purified protein [2])
1 | O=P(O)(O)OC[C@H]1OC(O)(COP(=O)(O)O)[C@@H](O)[C@@H]1O (stereo partly drawn) [Frc-1,6-BP] | effect of different concentrations of Frc-1,6-BP on Sll0726 and observed major inhibition | – | – | – | – | –
2 | B1 | – | 190 ± 40 µM | 415 ± 30.6 s⁻¹ | 3.04e+06 M⁻¹ s⁻¹ | – | –
3 | B2 | – | 90 ± 20 µM | 14.4 ± 0.7 s⁻¹ | 158000 M⁻¹ s⁻¹ | 1.2 ± 0.03 s⁻¹ | 600000 M⁻¹ s⁻¹
